Experimental data reported in US20250163149A1, “ANTI-RAGE ANTIBODY” (Swansea University, priority 2022, published 2025).

Legend:
RAGE synthetic peptide = biological target: T1, RAGE synthetic peptide (Homo sapiens, UniProt Q15109); experiment: Surface plasmon resonance binding kinetics (Biacore T200), synthetic peptide analyte; details: chimeric antibodies and AB11451
T1 construct: purchased Biorad; host or cells: chemical synthesis
Description: (§1) For on-rate and off-rate screening, Biacore™ T200 system (Cytiva, Uppsala, Sweden) was used to perform SPR analysis with 1×HBS-EP+ buffer (0.01M Hepes, 0.15M NaCl, 0.003M ethylenediaminetetraacetic acid, and 0.05% Surfactant P20, pH 7.4) (BR100669) used as sample and running buffer. The analysis temperature at the sensor chip surface and within the compartment was set to 25° C. Firstly, pH scouting with 10 mM sodium acetate buffer 4.0 (BR-1003-49), 10 mM sodium acetate buffer 4.5 (BR-1003-50), 10 mM sodium acetate buffer 5.0 (BR-1003-51) and 10 mM sodium acetate buffer 5.5 (BR-1003-52) was performed to identify the optimal pH required for ligand (α-RAGE antibodies) immobilization. This was followed by diluting the ligand with the appropriate Acetate buffer to at least 10 μg/mL. The ligand immobilization on the surface Series S Sensor Chip CM5 (29-1496-03, Cytiva) was performed using the Amine Coupling Kit (BR100050, Cytiva) containing 1-Etyhyl-3-(3-dimethylaminopropyl)-carbodiimide hydrochloride (EDC), N-Hydroxysuccinimide (NHS) and 1.0M ethanolamine-HcL PH 8.5 in accordance with the manufacturer's instructions. For each experimental run, the ligand was immobilized in flow cells 2 or 4 while flow cells 1 or 3 were left unmodified. Flow cells 2 and 4 were used as active flow cells while flow cells 1 and 3 were used as reference flow cells. […]

[1] = biological target: T2, RAGE recombinant protein (Human rRAGE) (Homo sapiens, UniProt Q15109); experiment: Surface plasmon resonance binding kinetics (Biacore T200), recombinant protein analyte; details: analyte RAGE recombinant protein, or RAGE synthetic peptide, not separated
T2 construct: Human rRAGE=Full-length RAGE recombinant protein from Merck; purchased Merck
Description: as §1, with “cells. Ligand immobilization levels were typically within the range 500-900 RU for the kinetic experiments and injected with a flow rate of 10 μL/min and contact time of 300 s. Analytes (RAGE recombinant protein and synthetic peptides) were injected for 120 s with a flow rate of 30 μL/min and dissociation time of 600 s run in order of increasing concentration over the reference and active flow cells using a multi-cycle kinetic approach with five-seven concentration range. Following each binding cycle, the surface was regenerated with a 30 s injection of 10 mM Glycine-HcL, pH 2.5 regeneration solution (BR-1003-56), removing the bound antibody with a contact time of 30 s, flow rate of 30 μL/min and a stabilization period of Os.” for “cells.”

RAGE protein on SKOV3 = biological target: T3, RAGE protein on SKOV3 (Homo sapiens, UniProt Q15109); experiment: Immunofluorescent staining of RAGE basal expression on SKOV3 cells; assay type: cell-based; details: primary antibody 4 μg/ml
T3 construct: RAGE protein expressed on the extracellular membrane of cancer cells in its native conformation; endogenous in cells; host or cells: SKOV3 (ECACC)
Description: To screen binding of α-RAGE antibodies by immunofluorescence, 1.5×10^4 SKOV3 cells/well (obtained from the European Collection of Authenticated Cell Cultures, ECACC, Public Health England, UK) were seeded in 8-well chamber slides (Ibidi) in 300 μl of stripped medium and cultured for 48 h in a humidified, 5% CO2 in air atmosphere incubator at 37° C. After culture, cells were fixed with 4% paraformaldehyde (Sigma) for 20 minutes, permeabilized with 0.1% Triton X-100 (Sigma) for 10 minutes at 4° C. and blocked with 3% BSA in PBS for 1 h. Primary antibodies diluted at 4 μg/ml in 3% BSA-PBS were incubated overnight at 4° C., followed by 1 h incubation with Alexa-488 secondary antibody. Cells were washed with PBS extensively between all steps, counterstained before imaging with Hoechst (Life Technologies™) and imaged using a LSM710 confocal fluorescence microscopy system (Zeiss, UK).

T3 sequence (Q15109 23-404): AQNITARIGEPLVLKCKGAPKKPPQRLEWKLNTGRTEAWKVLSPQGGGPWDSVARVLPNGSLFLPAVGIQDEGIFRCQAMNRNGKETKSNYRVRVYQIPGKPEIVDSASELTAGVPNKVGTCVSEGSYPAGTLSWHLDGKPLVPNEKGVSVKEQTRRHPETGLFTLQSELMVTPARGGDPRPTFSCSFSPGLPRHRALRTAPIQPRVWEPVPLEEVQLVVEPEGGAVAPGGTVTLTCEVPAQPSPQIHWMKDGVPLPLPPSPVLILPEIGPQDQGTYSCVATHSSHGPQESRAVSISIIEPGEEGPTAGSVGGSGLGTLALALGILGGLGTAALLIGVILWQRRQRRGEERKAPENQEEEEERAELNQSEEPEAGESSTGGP
T2 sequence (Q15109 23-404): as above
T1 sequence (Q15109 39-65 limits assumed): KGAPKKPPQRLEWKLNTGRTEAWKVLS

B1: hHA9: chimeric humanised format of anti-RAGE antibody clone HA9 (antibody, V domains shown)
VH: EVKLVETGGGLVQPGRPMKLSCVASGFTLSDHWMNWVRQSPEKGLEWVAQIRNRPYKFEKYYSDSVKGRFTISRDDSKNSVYLQMNNLRAEDMGIYYCSSYRYGLAYWGQGTLVTVST
VL: DNLLTQSPAILSVSPGERVSFSCRASQTIDTRIHWYQQRKNGSPRLLIRYISESLSGIPSRFSGSGSGTEFTLTINSVESEDIADYYCQQTESWPITFGSGTKLEIK
Q: B1 was tested. Which “binding affinity to the new synthetic peptides” value (RAGE synthetic peptide) did it give?
A: the affinity is weak

Q: What about the “affinity interaction by SPR (summary statement)” value [1] of the same molecule?
A: weaker affinity

Q: And the “affinity interaction by SPR (summary statement)” value ([1]; listed as chimeric-HA9)?
A: weaker affinity than AB11451 antibody or the commercial antibodies

Q: And the “immunofluorescent signal (basal RAGE staining)” value (shortened to “immunofluorescent signal”) (RAGE protein on SKOV3; compared with other clones and AB11451)?
A: highest detection of RAGE basal expression

Q: And the “immunofluorescent signal” value (RAGE protein on SKOV3; compared with other clones and AB11451, listed as chimeric HA9)?
A: most intense immunofluorescent signal

Q: What about the “immunofluorescent signal” value (RAGE protein on SKOV3; compared with other clones and AB11451, listed as chimeric-HA9) of the same molecule?
A: higher intensity
